T1: human IL1RAP (hu-IL1RAP) on human cells (human, UniProt Q9NPH3 21-570)
T1 sequence: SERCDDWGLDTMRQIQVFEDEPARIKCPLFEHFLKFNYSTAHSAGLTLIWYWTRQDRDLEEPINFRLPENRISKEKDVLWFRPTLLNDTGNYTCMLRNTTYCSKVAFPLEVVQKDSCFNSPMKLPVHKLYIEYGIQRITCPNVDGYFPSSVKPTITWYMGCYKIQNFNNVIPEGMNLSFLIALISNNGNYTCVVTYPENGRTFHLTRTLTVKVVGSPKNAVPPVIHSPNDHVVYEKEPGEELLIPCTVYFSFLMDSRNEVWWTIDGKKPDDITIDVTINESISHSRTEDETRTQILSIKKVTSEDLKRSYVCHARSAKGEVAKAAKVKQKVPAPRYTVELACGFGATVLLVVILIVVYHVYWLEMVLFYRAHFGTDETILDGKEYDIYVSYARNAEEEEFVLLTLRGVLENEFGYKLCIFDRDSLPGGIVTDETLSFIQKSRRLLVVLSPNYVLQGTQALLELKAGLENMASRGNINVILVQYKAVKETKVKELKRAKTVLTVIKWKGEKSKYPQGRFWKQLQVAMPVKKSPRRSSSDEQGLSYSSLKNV

T2: hu-M-IL1RAP construct, positions S21-T367 (extracellular domain of the membrane form of human IL1RAP) (human, UniProt Q9NPH3 21-367)
T2 construct: Biotinylated when captured on the Biacore chip
T2 sequence: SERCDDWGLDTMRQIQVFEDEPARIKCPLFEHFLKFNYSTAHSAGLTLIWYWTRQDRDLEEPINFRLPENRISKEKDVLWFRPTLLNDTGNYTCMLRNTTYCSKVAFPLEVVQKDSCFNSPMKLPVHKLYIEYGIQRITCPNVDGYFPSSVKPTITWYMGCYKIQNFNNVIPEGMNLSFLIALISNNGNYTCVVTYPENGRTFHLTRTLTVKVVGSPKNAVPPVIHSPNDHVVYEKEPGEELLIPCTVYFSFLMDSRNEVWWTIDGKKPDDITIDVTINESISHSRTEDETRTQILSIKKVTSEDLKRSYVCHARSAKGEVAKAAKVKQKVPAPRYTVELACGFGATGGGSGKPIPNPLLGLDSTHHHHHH

B1: K10/H2 Fab (VL-A51Y, VH-R96D) (Fab, V domains shown)
VH: EVQLVESGGGLVQPGGSLRLSCAASGFTFSNYAMSWVRQAPGKGLEWVATVTEGGDYNYYLDDVKGRFTISRDNAKNSLYLQMNSLRAEDTAVYYCARDDWPYFFDYWGQGTLVTVSS
VL: DIQMTQSPSSLSASVGDRVTITCRASENIYSNLAWYQQKPGKSPKLLVYGYKNLADGVPSRFSGSGSGTDYTLTISSLQPEDFATYYCQHFWTTPRTFGGGTKVEIK
notes: Fab with 8xHis tag
B2: K17/H2 Fab (VL-A51Y/W92K, VH-R96D) (Fab, V domains shown)
VH: B1 VH
VL: B1 VL with W92K
notes: Fab with 8xHis tag
B3: K13/H3 Fab (VL-A51Y/W92I, VH-V51S) (Fab, V domains shown)
VH: B1 VH with V51S, D100R
VL: B1 VL with W92I
notes: Fab with 8xHis tag
B4: K17/H3 Fab (VL-A51Y/W92K, VH-V51S) (Fab, V domains shown)
VH: B1 VH with V51S, D100R
VL: B1 VL with W92K
notes: Fab with 8xHis tag
B5: K10/H3 Fab (VL-A51Y, VH-V51S) (Fab, V domains shown)
VH: B1 VH with V51S, D100R
VL: B1 VL
notes: Fab with 8xHis tag
B6: K13/H2 Fab (VL-A51Y/W92I, VH-R96D) (Fab, V domains shown)
VH: B1 VH
VL: B1 VL with W92I
notes: Fab with 8xHis tag
B7: c11C5_C59A (antibody, IgG1, V domains shown)
VH: EVQLVESGGGLVKPGGSLKLSCAASGFTFSNYAMSWVRQTPEKRLEWVATVTEGGDYNYALDDVKGRFTISRDNANDNLYLQMSHLKSEDSARYYCARDRWPYFFDYWGQGTTLTVSS
VL: DIQMTQSPASLSVSVGETVTITCRASENIYSNLAWYQQKQGRSPQLLVYGAKNLADGVPSRFSGSGSGTQYSLNINSLQSEDFGTYYCQHFWTTPRTFGGGTKLEIK
notes: Murine VL and VH, human CL and IgG1 CH1-CH3 domains
B8: c11C5 (chimeric 11C5) (antibody, IgG1, V domains shown)
VH: B7 VH with A60C
VL: B7 VL
notes: as for B7
B9: m11C5_C59S (antibody, mouse IgG2a, V domains shown)
VH: B7 VH with A60S
VL: B7 VL
notes: Murine IgG2a constant domains
B10: m11C5_C59T (antibody, mouse IgG2a, V domains shown)
VH: B7 VH with A60T
VL: B7 VL
notes: Murine IgG2a constant domains
B11: m11C5_C59V (antibody, mouse IgG2a, V domains shown)
VH: B7 VH with A60V
VL: B7 VL
notes: Murine IgG2a constant domains
B12: m11C5_C59A (antibody, mouse IgG2a, V domains shown)
VH: B7 VH
VL: B7 VL
notes: Murine IgG2a constant domains
B13: m11C5_C59Y (antibody, mouse IgG2a, V domains shown)
VH: B7 VH with A60Y
VL: B7 VL
notes: Murine IgG2a constant domains
B14: h11C5 (humanized 11C5 mAb) (antibody, human IgG1, kappa, N297G, V domains shown)
VH: B1 VH with Y60C, D100R
VL: DIQMTQSPSSLSASVGDRVTITCRASENIYSNLAWYQQKPGKAPKLLVYGAKNLADGVPSRFSGSGSGTDYTLTISSLQPEDFATYYCQHFWTTPRTFGGGTKVEIKR
notes: Human IgG1/kappa
B15: h11C5_C59S (antibody, human IgG1, V domains shown)
VH: B1 VH with Y60S, D100R
VL: B1 VL with S43A, Y51A
notes: Human IgG1/kappa constant domains
B16: h11C5_C59T (antibody, human IgG1, V domains shown)
VH: B1 VH with Y60T, D100R
VL: B1 VL with S43A, Y51A
notes: as for B15
B17: h11C5_C59Y (C59Y variant of h11C5) (antibody, human IgG1, V domains shown)
VH: B1 VH with D100R
VL: B1 VL with S43A, Y51A
notes: as for B15
B18: h11C5_C59A (antibody, human IgG1, V domains shown)
VH: B1 VH with Y60A, D100R
VL: B1 VL with S43A, Y51A
notes: as for B15

Substitutions are numbered along the chain they refer to. Names and notes keep the numbering of the source.

The first assay deals with T1, human IL1RAP (hu-IL1RAP) on human cells. The assay is described as follows: cell-based or functional assay.
Turning to B1, the “HEK-Blue, IL-1β, % inhibition at 100 nM (Fab)” value (shortened to “HEK-Blue, IL-1β, % inhibition”) amounted to 100%; the “HEK-Blue, IL-1β, IC50 (Fab)” value amounted to 0.552 nM; the “HEK-Blue, IL-33, % inhibition at 100 nM (Fab)” value worked out at 99%; the “HEK-Blue, IL-33, IC50 (Fab)” value was determined as 2.17 nM. The “HEK-Blue, IL-36α, % inhibition at 100 nM (Fab)” value (“HEK-Blue, IL-36α, % inhibition” below) came out at 100% and the “HEK-Blue, IL-36α, IC50 (Fab)” value turned out to be 0.481 nM.

In the case of B2, the “HEK-Blue, IL-1β, % inhibition” value was 100%; the “HEK-Blue, IL-1β, IC50 (Fab)” value worked out at 1.86 nM; the “HEK-Blue, IL-33, % inhibition at 100 nM (Fab)” value was found to be 97%; the “HEK-Blue, IL-33, IC50 (Fab)” value was found to be 4.71 nM. Moreover, the “HEK-Blue, IL-36α, % inhibition” value was 100% and the “HEK-Blue, IL-36α, IC50 (Fab)” value stood at 0.93 nM.

On to B3, for which the “HEK-Blue, IL-1β, % inhibition” value turned out to be 100%; the “HEK-Blue, IL-1β, IC50 (Fab)” value is 0.898 nM; the “HEK-Blue, IL-33, % inhibition at 100 nM (Fab)” value was 99%; the “HEK-Blue, IL-33, IC50 (Fab)” value worked out at 2.07 nM. Moreover, the “HEK-Blue, IL-36α, % inhibition” value is 98% and the “HEK-Blue, IL-36α, IC50 (Fab)” value was determined as 0.462 nM.

Take B4: the “HEK-Blue, IL-1β, % inhibition” value was determined as 100%; the “HEK-Blue, IL-1β, IC50 (Fab)” value was found to be 1.32 nM; the “HEK-Blue, IL-33, % inhibition at 100 nM (Fab)” value amounted to 98%; the “HEK-Blue, IL-33, IC50 (Fab)” value came to 3.53 nM. The “HEK-Blue, IL-36α, % inhibition” value was found to be 100% and the “HEK-Blue, IL-36α, IC50 (Fab)” value was determined as 0.8 nM.

As to B5, the “HEK-Blue, IL-1β, % inhibition” value came to 99%; the “HEK-Blue, IL-1β, IC50 (Fab)” value is 0.642 nM; the “HEK-Blue, IL-33, % inhibition at 100 nM (Fab)” value was found to be 98%; the “HEK-Blue, IL-33, IC50 (Fab)” value stood at 2.43 nM. Also, the “HEK-Blue, IL-36α, % inhibition” value was 100% and the “HEK-Blue, IL-36α, IC50 (Fab)” value was 0.582 nM.

For B6, the “HEK-Blue, IL-1β, % inhibition” value turned out to be 100%; the “HEK-Blue, IL-1β, IC50 (Fab)” value came to 0.539 nM; the “HEK-Blue, IL-33, % inhibition at 100 nM (Fab)” value worked out at 98%; the “HEK-Blue, IL-33, IC50 (Fab)” value turned out to be 2.39 nM. The “HEK-Blue, IL-36α, % inhibition” value is 99% and the “HEK-Blue, IL-36α, IC50 (Fab)” value came to 0.548 nM.

Another assay deals with T2, hu-M-IL1RAP construct, positions …. The assay is described as follows: BLI (OCTET), mAb captured, 25 C.
Experimental: All samples were placed in black 96-well plates and the experiment was performed at 25° C. […] The biosensors were equilibrated in experimental buffer at 25° C. for ten minutes prior to starting the experiment.
The resulting BLI signal from analyte association and dissociation from the immobilized antibody was analyzed using the Octet Data Analysis software (Pall ForteBio). First, a reference subtraction was performed on all recorded traces using the reference well (biosensor that underwent the same steps as experimental wells but no analyte for the Association step), then all the traces were aligned to the beginning of the Association step.
In general, Kd refers to the constant that tells how readily two partners part at equilibrium. Read a low Kd as a tighter complex. B7 yielded a dissociation constant (Kd) of 0.756 nM.

In the case of B8, the dissociation constant Kd is 0.699 nM.

Regarding B9, the dissociation constant (Kd) stood at 0.598 nM.

B10 had a Kd of 1.38 nM.

In turn, B11 had a Kd of 0.604 nM.

Molecule B12 yielded a Kd of 0.513 nM.

The molecule B13 had a Kd of 0.524 nM.

In the case of B14, the Kd amounted to 1.06 nM.

Take B15: the Kd was 1.08 nM.

In turn, B16 returned a dissociation constant Kd of 3.26 nM.

Turning to B17, binding was characterised by a dissociation constant (Kd) of 1.34 nM.

As to B18, binding was put at a Kd of 2.06 nM.

The target is the same in the next assay. The assay is described as follows: SPR, Fab analyte, 37 C.
Experimental: Surface plasmon resonance (SPR) analysis was used to determine binding affinity for hu-M-IL1RAP of the purified Fabs containing the selected single, double, and triple mutations in either the VL or VH regions using a BIACORE™ 8K instrument. […] For kinetics measurements, 5 nM biotinylated hu-M-IL1RAP was captured at 10 μL/min to achieve ˜50 response units in the second flow cell (FC2). FC1 was kept as a reference. […] The sensorgrams were recorded and subjected to reference and buffer subtraction before data analysis with the BIACORE® 8K Evaluation Software (version 1.1.1.7442). Association rates (kₒₙ) and dissociation rates (koff) were calculated using a simple one-to-one Langmuir binding model. The equilibrium dissociation constant (KD) was calculated as the ratio of koff/kₒₙ.
The koff is the first-order rate constant of dissociation. Lower therefore signals a long-lived complex. By kon is commonly meant the second-order rate constant of association. Read a high kon as faster complex formation. B1 had a Kd of 0.0201 nM, an off-rate constant (koff) of 0.000111 s⁻¹ and a kon of 5.54e+06 M⁻¹ s⁻¹.

B2 yielded a Kd of 0.0293 nM, a koff of 0.000121 s⁻¹ and a kon of 4.15e+06 M⁻¹ s⁻¹.

The molecule B3 showed a Kd of 0.0211 nM, a koff of 0.000109 s⁻¹ and a kon of 5.17e+06 M⁻¹ s⁻¹.

B4: the Kd worked out at 0.0315 nM, the koff amounted to 0.00012 s⁻¹ and the kon was 3.81e+06 M⁻¹ s⁻¹.

With B5, the dissociation constant (Kd) stood at 0.0242 nM, the off-rate (koff) turned out to be 0.000123 s⁻¹ and the on-rate constant (kon) is 5.06e+06 M⁻¹ s⁻¹.

As to B6, the Kd was determined as 0.0227 nM, the koff came out at 0.000115 s⁻¹ and the kon was found to be 5.08e+06 M⁻¹ s⁻¹.

For another assay, the target named is T1, human IL1RAP (hu-IL1RAP) on human cells. The assay is described as follows: cell-based or functional assay. The source holds these as a separate data set.
B14: the “HEK-Blue, IL-1β, IC50” value was 3.12 nM; the “HEK-Blue, IL-33, % inhibition at 100 nM” value came out at 80%; the “HEK-Blue, IL-33, IC50” value came to 24 nM.

Regarding B17, the “HEK-Blue, IL-1β, IC50” value amounted to 1.03 nM and the “HEK-Blue, IL-33, IC50” value was 3.75 nM.

The values are drawn from patent US20260015426A1 (23ANDME, published 2026).
